The values below come from PMC4880445, “Structure of a Holliday junction complex reveals mechanisms governing a highly regulated DNA transaction” (eLife, 2016).

B2: bacteriophage λ integrase (Int) (enzyme)
chain: MGRRRSHERRDLPPNLYIRNNGYYCYRDPRTGKEFGLGRDRRIAITEAIQANIELFSGHKHKPLTARINSDNSVTLHSWLDRYEKILASRGIKQKTLINYMSKIKAIRRGLPDAPLEDITTKEIAAMLNGYIDEGKAASAKLIRSTLSDAFREAIAEGHITTNHVAATRAAKSEVRRSRLTADEYLKIYQAAESSPCWLRLAMELAVVTGQRVGDLCEMKWSDIVDGYLYVEQSKTGVKIAIPTALHIDALGISMKETLDKCKEILGGETIIASTRREPLSSGTVSRYFMRARKASGLSFEGDPPTFHELRSLSARLYEKQISDKFAQHLLGHKSDTMASQYRDDRGREWDKIEIK
notes: Integrase (Int) of bacteriophage λ, tyrosine recombinase; The model holds the NTD (residues 1-55), the NTD-CB linker (56-74) and the CB and catalytic domains (75-356); The NTD of Int-C is not in the model; also called site-specific recombinase; Int-B

Data set [1] deals with B2. Briefly: cryo-EM structure; excisive Holliday junction complex trapped by in vitro recombination of attL and attR (150 nM IHF, 350 nM Xis, 350 nM Int, 25 mM HEPES pH 7.5, room temperature); crosslinked with 0.0035% glutaraldehyde; purified on sucrose gradients; single particle map at about 11 Å; model built by fitting known crystal and NMR structures into the density. As to conditions: both partners purified.

Data set [2] concerns the molecule itself. The data set is described as above.

B1: bacteriophage λ Xis protein (natural protein, UniProt P03699 1-72, looked up)
chain: MYLTLQEWNARQRRPRSLETVRRWVRECRIFPPPVKDGREYLFHESAVKVDLNRPVTGGLLKRIRNGKKAKS
notes: Virally encoded accessory DNA-bending protein Xis of bacteriophage λ; The 18 C-terminal residues are missing from the model, as in the Xis-DNA crystal structures; also called Xis1.5
Take B1: the binding result in data set [1] is “binds”.

As to B2, the “stoichiometry N” value in data set [2] was determined as 4.
